Where only a bound is given, the exact number is not on record here.

Assay in all cases: BLI
In general terms: In BLI a coated tip is dipped into the sample, and binding shifts an interference pattern.

Assay [1] addresses IN11 N2 (recombinant N2 neuraminidase head of H3N2 A/Indiana/08/2011) (Influenza A virus H3N2 A/Indiana/08/2011).
In assay [2] the target is CO17 B NA (recombinant neuraminidase head of B/Colorado/06/2017, B/Victoria-lineage) (Influenza B virus B/Colorado/06/2017).
For assay [3], the target named is T1, PT09 N2 (recombinant N2 neuraminidase head of H3N2 A/Perth/16/2009) (Influenza A virus H3N2 A/Perth/16/2009).
T1 chain: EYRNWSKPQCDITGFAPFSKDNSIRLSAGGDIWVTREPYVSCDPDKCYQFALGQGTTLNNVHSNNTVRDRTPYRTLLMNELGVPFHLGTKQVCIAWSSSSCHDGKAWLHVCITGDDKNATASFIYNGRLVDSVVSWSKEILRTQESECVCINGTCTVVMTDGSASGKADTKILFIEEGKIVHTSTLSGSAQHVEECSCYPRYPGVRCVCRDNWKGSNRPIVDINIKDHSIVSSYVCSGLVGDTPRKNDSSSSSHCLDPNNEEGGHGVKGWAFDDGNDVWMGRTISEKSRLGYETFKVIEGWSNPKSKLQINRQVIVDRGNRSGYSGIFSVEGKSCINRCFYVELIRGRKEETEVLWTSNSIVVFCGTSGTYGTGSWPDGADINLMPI

B1: DA03E17 IgG (human monoclonal antibody) (antibody, V domains shown)
VH: EVQLVESGPGLVKPSQTLSLTCTVSGGSFSSGGYLWSWVRQHPGKGLEWIGYILYSGSPYYNPSLESRATISLDTSKNQFSLRLISVTAADAAMYYCARVDGSGNTDRYYFYGMDVWGQGTMVTVSS
VL: DIQMTQSPSSVSASVGDRVTITCRASRGIGDWLAWYQQKPGKAPKLLIYAASSLQRGVPSRFSGSGSGTDFTLTISSLQPDDFATYYCQQADGWEVWTFGQGTKVDVK
On to B1, for which the Kd (in general, the equilibrium constant for the complex coming apart) in assay [1] is below 0.001 nM; in assay [2], 0.969 nM; in assay [3], below 0.001 nM.

B2: DA03E17 Fab (Fab, V domains shown)
VH: EVQLVESGPGLVKPSQTLSLTCTVSGGSFSSGGYLWSWVRQHPGKGLEWIGYILYSGSPYYNPSLESRATISLDTSKNQFSLRLISVTAADAAMYYCARVDGSGNTDRYYFYGMDVWGQGTMVTVSS
VL: DIQMTQSPSSVSASVGDRVTITCRASRGIGDWLAWYQQKPGKAPKLLIYAASSLQRGVPSRFSGSGSGTDFTLTISSLQPDDFATYYCQQADGWEVWTFGQGTKVDVK
As for B2, the Kd in assay [1] was found to be 4.53 nM; in assay [2] it was 913 nM; in assay [3], 31 nM.
